± gives the standard deviation of the averaged measurements.
B1: library; numbered along this chain (parent)
chain: MNIQIGELAKRTACPVVTIRFYEQEGLLPPPGRSRGNFRLYGEEHVERLQFIRHCRSLDMPLSDVRTLLSYRKRPDQDCGEVNMLLDEHIRQVESRIGALLELKHHLVELREACSGARPAQSCGILQGLSDCVCDTRGTTAHPSD

Experiments:
[1] = variants of: B1; experiment: sfGFP reporter fluorescence (15 h) (µM FITC); higher = higher leak; details: library round: Round 0; ligand: none
Procedure, shortened: (§1)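 Linear PbrR templates were made by PCR, normalized to 5 nM with an Echo, and expressed in BL21 Star (DE3) PANOx-SP extract with the pPbrR-sfGFP reporter plasmid and 30 μg/mL GamS. Echo-assembled 1 μL reactions held 1 µM lead chloride, 30 µM zinc acetate or no metal and were incubated 15 hr at 30 °C. Endpoint sfGFP fluorescence was read on a Synergy Neo2 and expressed as µM FITC using standard curves. Up to three biological replicates were run.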

[2] = variants of: B1; experiment: sfGFP reporter fluorescence (15 h) (µM FITC); higher = stronger transcriptional activation; details: library round: Round 0
Procedure, shortened: as §1

Row | Variant | sfGFP reporter fluorescence [1] | sfGFP reporter fluorescence ([2]; ligand: 1 µM Pb) | sfGFP reporter fluorescence ([2]; ligand: 30 µM Zn)
1 | P61E | 0.0693 | 0.0991 ± 0.0049 | 0.338 ± 0.042
2 | P61F | 0.0608 ± 0.0031 | 0.0651 ± 0.0023 | 0.09382 ± 0.00052
3 | P61G | 0.0819 ± 0.0029 | 0.2936 ± 0.0021 | 2.2 ± 0.053
4 | P61H | 0.0658 ± 0.00078 | 0.117 ± 0.0021 | 0.797 ± 0.015
5 | P61I | 0.0553 ± 0.0067 | 0.06414 ± 0.00052 | 0.112 ± 0.00026
6 | P61K | 0.068 ± 0.00078 | 0.107 ± 0.0031 | 1.6 ± 0.1
7 | P61L | 0.0638 ± 0.0026 | 0.0823 ± 0.0039 | 0.191 ± 0.0057
8 | P61M | 0.0682 ± 0.001 | 0.1424 ± 0.0013 | 0.714 ± 0.039
9 | P61N | 0.07825 ± 0.00026 | 0.13 ± 0.078 | 1.74 ± 0.049
10 | P61N D64K | 0.232 ± 0.0052 | 0.762 ± 0.12 | 3.05 ± 0.076
11 | P61N D64K G128I | 0.452 ± 0.022 | 1.46 ± 0.23 | 3.51 ± 0.073
12 | P61N D64K G128M | 1.01 ± 0.069 | 2.17 ± 0.97 | 4.15 ± 0.24
13 | P61N D64K K104V | 0.26 ± 0.0026 | 0.752 ± 0.037 | 2.41 ± 0.1
14 | P61N D64K K104V G128I | 0.32 ± 0.048 | 0.989 ± 0.27 | 2.48 ± 0.29
15 | P61N D64K K104V G128M | 0.739 ± 0.021 | 1.592 ± 0.0036 | 3.375 ± 0.019
16 | P61N D64K K104V L107C | 0.676 ± 0.011 | 2.12 ± 0.066 | 2.74 ± 0.35
17 | P61N D64K L107C | 2.69 ± 0.12 | 3.57 ± 0.046 | 3.69 ± 0.12
18 | P61N D64K L107C G128I | 3.28 ± 0.15 | 4.88 ± 0.7 | 4.54 ± 0.044
19 | P61N D64K L107C G128M | 4.78 ± 0.1 | 5.3 ± 0.14 | 4.84 ± 0.18
20 | P61N G128I | 0.1886 ± 0.0018 | 0.682 ± 0.092 | 3.06 ± 0.22
21 | P61N G128M | 0.481 ± 0.039 | 1.59 ± 0.34 | 4.72 ± 0.4
22 | P61N K104V | 0.121 ± 0.016 | 0.385 ± 0.007 | 1.77 ± 0.47

Row | Variant | sfGFP reporter fluorescence [1] | sfGFP reporter fluorescence ([2]; ligand: 1 µM Pb) | sfGFP reporter fluorescence ([2]; ligand: 30 µM Zn)
23 | P61N K104V G128I | 0.133 ± 0.0086 | 0.341 ± 0.0067 | 1.53 ± 0.083
24 | P61N K104V G128M | 0.395 ± 0.015 | 1.034 ± 0.006 | 3.13 ± 0.069
25 | P61N K104V L107C | 0.283 ± 0.021 | 1.28 ± 0.11 | 2.54 ± 0.079
26 | P61N K104V L107C G128I | 0.289 ± 0.0057 | 1.306 ± 0.0026 | 2.66 ± 0.067
27 | P61N K104V L107C G128M | 0.584 ± 0.064 | 2.12 ± 0.083 | 3.41 ± 0.56
28 | P61N L107C | 1.34 ± 0.084 | 2.4 ± 0.077 | 3.92 ± 0.019
29 | P61N L107C G128I | 1.6 ± 0.35 | 2.91 ± 0.12 | 3.99 ± 0.4
30 | P61N L107C G128M | 3.31 ± 0.13 | 4.37 ± 0.48 | 5.17 ± 0.11
31 | P61Q | 0.0755 ± 0.0015 | 0.148 ± 0.0065 | 1.07 ± 0.024
32 | P61R | 0.0715 ± 0.0031 | 0.1231 ± 0.00052 | 1.42 ± 0.021
33 | P61S | 0.0755 ± 0.00052 | 0.146 ± 0.0036 | 2.15 ± 0.052
34 | P61T | 0.0865 ± 0.001 | 0.211 ± 0.006 | 1.94 ± 0.03
35 | P61V | 0.0651 ± 0.0013 | 0.09 ± 0.0029 | 0.302
36 | P61W | 0.061 ± 0.0039 | 0.06395 ± 0.00026 | 0.104 ± 0.0018
37 | P61Y | 0.0638 ± 0.0015 | 0.0757 ± 0.0018 | 0.148 ± 0.0023
38 | L62A | 0.06469 ± 0.00026 | 0.0634 ± 0.0031 | 0.0839 ± 0.0062
39 | L62C | 0.061 ± 0.0018 | 0.0651 ± 0.0013 | 0.0995 ± 0.00078
40 | L62D | 0.06066 ± 0.00026 | 0.0629 ± 0.0018 | 0.0649 ± 0.001
41 | L62E | 0.06066 ± 0.00026 | 0.0625 ± 0.0023 | 0.0658 ± 0.0013
42 | L62F | 0.0599 ± 0.0023 | 0.0652 ± 0.0015 | 0.168 ± 0.0039
43 | L62G | 0.0586 ± 0.001 | 0.0579 ± 0.0015 | 0.0614 ± 0.00078
44 | L62H | 0.06285 ± 0.00026 | 0.0638 ± 0.001 | 0.0918 ± 0.0049

Row | Variant | sfGFP reporter fluorescence [1] | sfGFP reporter fluorescence ([2]; ligand: 1 µM Pb) | sfGFP reporter fluorescence ([2]; ligand: 30 µM Zn)
45 | L62I | 0.05992 ± 0.00026 | 0.0883 ± 0.0062 | 0.88 ± 0.14
46 | L62K | 0.0632 ± 0.0013 | 0.0619 ± 0.001 | 0.0815 ± 0.0018
47 | L62M | 0.066 ± 0.001 | 0.0962 ± 0.0049 | 0.533 ± 0.033
48 | L62N | 0.061 ± 0.00078 | 0.0632 ± 0.00078 | 0.08008 ± 0.00026
49 | L62P | 0.06194 ± 0.00052 | 0.06487 ± 0.00052 | 0.0993 ± 0.0042
50 | L62Q | 0.0597 ± 0.001 | 0.0608 ± 0.001 | 0.0819 ± 0.0018
51 | L62R | 0.06377 ± 0.00052 | 0.0643 ± 0.0013 | 0.0704 ± 0.0047
52 | L62S | 0.0619 ± 0.0015 | 0.063 ± 0.001 | 0.0744 ± 0.001
53 | L62T | 0.0607 ± 0.0034 | 0.0674 ± 0.0031 | 0.133 ± 0.0031
54 | L62V | 0.0621 ± 0.0018 | 0.08008 ± 0.00078 | 0.396 ± 0.0088
55 | L62W | 0.0616 ± 0.0042 | 0.0603 ± 0.0034 | 0.0665 ± 0.0013
56 | L62Y | 0.0599 ± 0.0023 | 0.0623 ± 0.00052 | 0.0748 ± 0.0057
57 | S63A | 0.0607 ± 0.00078 | 0.0733 ± 0.0026 | 0.725 ± 0.037
58 | D64A | 0.0874 ± 0.0065 | 0.158 ± 0.049 | 2.22 ± 0.24
59 | D64A L68S | 0.0623 ± 0.0021 | 0.0597 ± 0.0026 | 0.0803 ± 0.0036
60 | D64C | 0.0848 ± 0.032 | 0.335 ± 0.072 | 2.45 ± 0.3
61 | D64E | 0.0581 ± 0.0018 | 0.061 ± 0.0013 | 0.1552 ± 0.00078
62 | D64F | 0.267 ± 0.014 | 1.01 ± 0.054 | 3.86 ± 0.28
63 | D64G | 0.06322 ± 0.00026 | 0.121 ± 0.0054 | 1.26 ± 0.049
64 | D64H | 0.0682 ± 0.001 | 0.12 ± 0.0054 | 1.81 ± 0.088
65 | D64I | 0.256 ± 0.028 | 0.837 ± 0.025 | 3.78 ± 0.41
66 | D64K | 0.154 ± 0.049 | 0.382 ± 0.023 | 3.306 ± 0.03

Row | Variant | sfGFP reporter fluorescence [1] | sfGFP reporter fluorescence ([2]; ligand: 1 µM Pb) | sfGFP reporter fluorescence ([2]; ligand: 30 µM Zn)
67 | D64K G128I | 0.371 ± 0.021 | 1.32 ± 0.067 | 4.45 ± 0.14
68 | D64K G128M | 0.806 ± 0.04 | 1.86 ± 0.25 | 4.98 ± 0.34
69 | D64K K104V | 0.4361 ± 0.0031 | 1.44 ± 0.053 | 4.041 ± 0.031
70 | D64K K104V G128I | 0.711 ± 0.092 | 1.75 ± 0.096 | 4.36 ± 0.25
71 | D64K K104V G128M | 1.36 ± 0.059 | 2.78 ± 0.079 | 4.45 ± 0.11
72 | D64K K104V L107C | 2.05 ± 0.034 | 4.21 ± 0.2 | 4.1 ± 0.055
73 | D64K K104V L107C G128I | 2.19 ± 0.12 | 4.16 ± 0.23 | 3.35 ± 0.64
74 | D64K K104V L107C G128M | 3.13 ± 0.25 | 3.98 ± 0.082 | 3.57 ± 0.84
75 | D64K L107C | 3.83 ± 0.36 | 3.75 ± 0.15 | 4.11 ± 0.21
76 | D64K L107C G128I | 4.71 ± 0.58 | 4.78 ± 0.6 | 4.48 ± 0.43
77 | D64K L107C G128M | 6.27 ± 0.28 | 5.91 ± 0.52 | 4.866 ± 0.045
78 | D64L | 2.28 ± 0.17 | 3.29 ± 0.26 | 4.32 ± 0.14
79 | D64M | 2.97 ± 0.48 | 3.46 ± 0.68 | 4.15 ± 0.31
80 | D64N | 0.06652 ± 0.00026 | 0.137 ± 0.006 | 1.64 ± 0.084
81 | D64P | 0.0607 ± 0.00078 | 0.076 ± 0.00078 | 0.162 ± 0.0067
82 | D64Q | 0.0579 ± 0.001 | 0.0808 ± 0.0029 | 0.781 ± 0.044
83 | D64R | 0.064 ± 0.0039 | 0.112 ± 0.0049 | 1.4 ± 0.036
84 | D64S | 0.0944 ± 0.0013 | 0.22 ± 0.013 | 3.02 ± 0.097
85 | D64T | 0.217 ± 0.0054 | 0.331 ± 0.051 | 2.74 ± 0.3
86 | D64V | 0.177 ± 0.0098 | 0.5072 ± 0.0036 | 3.52 ± 0.1
87 | D64W | 0.0815 ± 0.0029 | 0.167 ± 0.0052 | 1.64 ± 0.044
88 | D64Y | 0.61 ± 0.017 | 1.75 ± 0.51 | 3.81 ± 0.17
